Read-outs that look alike come from different tables or passages of the source.
Tests used:
[1] = molecular target: T1, recombinant cynomolgus monkey NKG2D (cynomolgus monkey, UniProt P61252 78-216, limits assumed); experiment: SPR
T1 sequence (looked up): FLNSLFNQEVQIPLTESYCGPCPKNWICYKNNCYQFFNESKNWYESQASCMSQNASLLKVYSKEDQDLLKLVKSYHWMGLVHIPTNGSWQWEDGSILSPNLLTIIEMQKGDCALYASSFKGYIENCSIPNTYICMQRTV

recombinant rat NKG2D = molecular target: T2, recombinant rat NKG2D (rat, UniProt O70215 75-215, limits assumed); experiment: SPR
T2 sequence (looked up): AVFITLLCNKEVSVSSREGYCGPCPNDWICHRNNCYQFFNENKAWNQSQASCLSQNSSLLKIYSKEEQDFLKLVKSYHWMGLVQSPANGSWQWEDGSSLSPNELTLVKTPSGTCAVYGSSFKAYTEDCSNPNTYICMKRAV

recombinant mouse NKG2D = molecular target: T3, recombinant mouse NKG2D (mouse, UniProt O54709 94-232, limits assumed); experiment: SPR
T3 sequence (looked up): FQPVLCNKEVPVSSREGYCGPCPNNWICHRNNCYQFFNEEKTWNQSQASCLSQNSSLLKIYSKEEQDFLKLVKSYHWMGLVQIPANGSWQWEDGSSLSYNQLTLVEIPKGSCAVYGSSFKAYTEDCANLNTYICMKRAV

[2] = molecular target: T4, human EGFR (wild type) on cells (human, UniProt P00533 25-1210); experiment: cell-based or functional assay
[3] = molecular target: T4, human EGFR (wild type) on cells; experiment: cell-based or functional assay; remark: listed apart in the source
[4] = molecular target: T5, human EGFR T790M, L858R on NCI-H1975 cells (human, UniProt P00533 25-1210); experiment: cell-based or functional assay
[5] = molecular target: T4, human EGFR (wild type) on cells; experiment: cell-based or functional assay; remark: listed apart in the source
[6] = molecular target: T5, human EGFR T790M, L858R on NCI-H1975 …; experiment: cell-based or functional assay; remark: listed apart in the source
[7] = molecular target: T4, human EGFR (wild type) on cells; experiment: cell-based or functional assay; remark: listed apart in the source
[8] = molecular target: T5, human EGFR T790M, L858R on NCI-H1975 …; experiment: cell-based or functional assay; remark: listed apart in the source
[9] = molecular target: T4, human EGFR (wild type) on cells; experiment: cell-based or functional assay; remark: listed apart in the source
[10] = molecular target: purified recombinant rat EGFR (rat, UniProt A0ABK0LZB0 35-651); experiment: SPR (Biacore 8K), 37 C
[11] = molecular target: purified recombinant mouse EGFR (mouse, UniProt Q01279 25-647, limits assumed); experiment: SPR (Biacore 8K), 37 C
[12] = molecular target: T6, purified recombinant human EGFR (human, UniProt P00533 25-645); experiment: SPR (Biacore 8K), 37 C
T6 construct: the whole entry is named; also called recombinant human epidermal growth factor receptor

[13] = molecular target: purified recombinant cynomolgus monkey EGFR (cynomolgus monkey, UniProt A0A2K5WK39 25-645); experiment: SPR (Biacore 8K), 37 C
[14] = molecular target: T7, cynomolgus monkey NKG2D on NK cells (cynomolgus monkey, UniProt P61252 1-216); experiment: cell-based or functional assay
T7 sequence (looked up): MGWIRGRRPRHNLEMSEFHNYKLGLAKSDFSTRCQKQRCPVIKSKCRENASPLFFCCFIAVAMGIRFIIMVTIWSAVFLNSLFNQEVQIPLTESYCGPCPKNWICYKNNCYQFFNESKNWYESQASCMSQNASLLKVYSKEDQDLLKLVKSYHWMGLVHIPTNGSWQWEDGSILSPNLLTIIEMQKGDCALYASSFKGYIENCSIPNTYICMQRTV

[15] = molecular target: T4, human EGFR (wild type) on cells; experiment: cell-based or functional assay; remark: listed apart in the source
[16] = molecular target: T5, human EGFR T790M, L858R on NCI-H1975 …; experiment: cell-based or functional assay; remark: listed apart in the source
[17] = molecular target: T4, human EGFR (wild type) on cells; experiment: flow cytometry, FaDu cells
[18] = molecular target: T4, human EGFR (wild type) on cells; experiment: flow cytometry, HT29 cells
[19] = molecular target: T4, human EGFR (wild type) on cells; experiment: flow cytometry, BT474 cells
[20] = molecular target: T4, human EGFR (wild type) on cells; experiment: flow cytometry, HCT116 cells
[21] = molecular target: T5, human EGFR T790M, L858R on NCI-H1975 …; experiment: flow cytometry, NCI-H1975 cells
[22] = molecular target: T4, human EGFR (wild type) on cells; experiment: flow cytometry, NCI-H2172 cells
[23] = molecular target: T4, human EGFR (wild type) on cells; experiment: flow cytometry, MDA-MB-453 cells

B1: EGFR-TriNKET (bispecific antibody, human IgG1, kappa)
chain: DIQMTQSPSSLSASVGDRVTITCQASQDISNYLNWYQQKPGKAPKLLIYDASNLETGVPSRFSGSGSGTDFTFTISSLQPEDIATYYCQHFRHLPLAFGCGTKVEIKGGGGSGGGGSGGGGSGGGGSQVQLQESGPGLVKPSETLSLTCTVSGGSVSSGDYYWTWIRQSPGKCLEWIGHIYYSGNTNYNPRLKSRLTISIDTSKTQFSLKLSSVTAADTAIYYCVRDRVTGAFDIWGQGTMVTVSSGSDKTHTCPPCPAPELLGGPSVFLFPPKPKDTLMISRTPEVTCVVVDVSHEDPEVKFNWYVDGVEVHNAKTKPREEQYNSTYRVVSVLTVLHQDWLNGKEYKCKVSNKALPAPIEKTISKAKGQPREPRVYTLPPCRDELTKNQVSLTCLVKGFYPSDIAVEWESNGQPENNYKTTPPVLVSDGSFTLYSKLTVDKSRWQQGNVFSCSVMHEALHNHYTQKSLSLSPG
heavy: EVQLVESGGGLVKPGGSLRLSCAASGFTFSSYSMNWVRQAPGKGLEWVSSISSSSSYIYYADSVKGRFTISRDNAKNSLYLQMNSLRAEDTAVYYCARGAPIGAAAGWFDPWGQGTLVTVSSASTKGPSVFPLAPSSKSTSGGTAALGCLVKDYFPEPVTVSWNSGALTSGVHTFPAVLQSSGLYSLSSVVTVPSSSLGTQTYICNVNHKPSNTKVDKKVEPKSCDKTHTCPPCPAPELLGGPSVFLFPPKPKDTLMISRTPEVTCVVVDVSHEDPEVKFNWYVDGVEVHNAKTKPREEQYNSTYRVVSVLTVLHQDWLNGKEYKCKVSNKALPAPIEKTISKAKGQPREPQVCTLPPSRDELTENQVSLTCLVKGFYPSDIAVEWESNGQPENNYKTTPPVLDSDGSFFLYSWLTVDKSRWQQGNVFSCSVMHEALHNHYTQKSLSLSPG
light: DIQMTQSPSSVSASVGDRVTITCRASQGISSWLAWYQQKPGKAPKLLIYAASSLQSGVPSRFSGSGSGTDFTLTISSLQPEDFATYYCQQGVSFPRTFGGGTKVEIKRTVAAPSVFIFPPSDEQLKSGTASVVCLLNNFYPREAKVQWKVDNALQSGNSQESVTEQDSKDSTYSLSSTLTLSKADYEKHKVYACEVTHQGLSSPVTKSFNRGEC
notes: also called EGFR-TriNKET-3
- Kd [1]: 562 nM
- binding result (recombinant rat NKG2D): no binding
- binding result (recombinant mouse NKG2D): no binding
- EC50 of growth inhibition at 72 hours (IncuCyte), human primary keratinocytes, against cetuximab [2]: 60 fold
- EC50 of inhibition of EGF-induced EGFR phosphorylation (AlphaLISA), human primary keratinocytes [2]: 5.3 nM
- EC50 of tumor cell growth inhibition over 72 hours (IncuCyte), NCI-H292-NucLight Green or FaDu cells [2]: 1.7 to 3.9 nM
- EC50, long-term NK cell-mediated cytotoxicity (IncuCyte, 72 h, 50% human serum), KYSE-30, NK CD16a F/F (n = 2) [3]: 0.015 nM
- EC50, long-term NK cell-mediated cytotoxicity, 786-O, NK CD16a F/F (n = 2) [3]: 0.24 nM
- EC50, long-term NK cell-mediated cytotoxicity, 786-O, NK CD16a V/F (n = 1) [3]: 0.15 nM
- EC50, long-term NK cell-mediated cytotoxicity, HCT116, NK CD16a F/F (n = 2) [3]: 0.28 nM
- EC50, long-term NK cell-mediated cytotoxicity, HCT116, NK CD16a V/V (n = 1) [3]: 0.21 nM
- EC50, long-term NK cell-mediated cytotoxicity, KYSE-30, NK CD16a V/F (n = 1) [3]: 0.013 nM
- EC50, long-term NK cell-mediated cytotoxicity, NCI-H1975, NK CD16a F/F (n = 2) [4]: 0.23 nM
- EC50, long-term NK cell-mediated cytotoxicity, NCI-H1975, NK CD16a V/F (n = 1) [4]: 0.09 nM
- EC50, NK cell degranulation and cytokine production, human PBMCs with 786-O [5]: 0.089 nM
- EC50, NK cell degranulation and cytokine production, human PBMCs with NCI-H1975 [6]: 0.067 nM
- EC50, ADCP by M0 macrophages, 786-O [7]: 2.2 nM
- EC50, ADCP by M0 macrophages, NCI-H1975 [8]: 2.3 nM
- EC50, NK-dependent inhibition at 72 hours, HT29 tumor cells [9]: 0.063 nM
- binding result [10]: no binding
- binding result [11]: no binding
- Kd [12]: 4.7 nM
- koff [12]: 0.00095 s⁻¹
- kon [12]: 200000 M⁻¹ s⁻¹
- Kd [13]: 5.9 nM
- koff [13]: 0.001 s⁻¹
- kon [13]: 180000 M⁻¹ s⁻¹
- EC50, NK cell degranulation and cytokine production, cynomolgus monkey PBMCs with 786-O [14]: 0.023 nM
- EC50, NK cell degranulation and cytokine production, cynomolgus monkey PBMCs with NCI-H1975 [14]: 0.037 nM
- EC50, NK cell degranulation and cytokine production, human PBMCs with 786-O [15]: 0.089 nM
- EC50, NK cell degranulation and cytokine production, human PBMCs with NCI-H1975 [16]: 0.067 nM
- EC50 [17]: 11 nM
- Max FOB [17]: 1200 fold over background
- EC50 [18]: 1.3 nM
- Max FOB [18]: 340 fold over background
- EC50 [19]: 0.77 nM
- Max FOB [19]: 41 fold over background
- EC50 [20]: 1.4 nM
- Max FOB [20]: 300 fold over background
- EC50 [21]: 2.3 nM
- Max FOB [21]: 170 fold over background
- EC50 [22]: 1 nM
- Max FOB [22]: 140 fold over background
- EC50 [23]: 0.33 nM
- Max FOB [23]: 5 fold over background
